The results in this text go back to US5736356A, “Transglutaminase originating from Crassostrea gigas” (Ajinomoto Co., Inc., priority 1994, dated 1998).

The target of data set [1] is dimethylated casein.
Data set [2] has as its target dimethylated casein. This is another data set of the same source.
Data set [3] concerns the target dimethylated casein. This is another data set of the same source.
Data set [4] deals with dimethylated casein and monodansylcadaverine. The experiment in a line: Effect of NaCl and Ca2+ on enzyme activity. The data set is classed as biochemical. Conditions: for effect of NaCl concentration on enzyme activity (in words): increasing NaCl concentration.
The subject of a further data set is casein. The experiment in a line: Control of gelation of casein solution by NaCl and CaCl2. Type of data set: biochemical. The arrangement: key to degree of gelation: -: the solution was still in the solution state; ±: the solution was a high viscosity product; +: the solution was a gelated product. On the procedure: To an aqueous solution of casein (available from Sigma Company) having a protein concentration of 1% by weight, there was added NaCl in such an amount that the concentration thereof was 0, 0.1 or 0.3M, while variously changing the calcium chloride concentration within the range of from 0 to 200 mM to thus investigate the gelation of the protein. In this connection, the purified transglutaminase was added in an amount corresponding to 4.0 units per 1 mg of the protein. After carrying out the reaction at 37° C. for 90 minutes, the degree of gelation was evaluated.

Data set [5] relates to dimethylated casein and monodansylcadaverine. The experiment in a line: Transglutaminase activity of purification fractions (monodansylcadaverine incorporation into dimethylated casein, fluorescence). The data set is classed as biochemical. The protocol:
The activity of the transglutaminase is determined by reacting the enzyme with dimethylated casein and monodansylcadaverine as substrates and measuring an increase in the fluorescent intensity of casein due to the incorporation of monodansylcadaverine into the dimethylated casein. The composition of the reaction solution is as follows:
To 2.4 ml of the foregoing reaction solution, there is added 20 to 50 μl of the transglutaminase solution followed by carrying out the reaction at 37° C. for 30 min, terminating the reaction by addition of 100 μl of a 500 mM EDTA solution and then determining the fluorescent intensity of the reaction solution (using a device: RF-1500 available from Shimadzu Corporation; excitation wavelength: 350 nm; wavelength of emitted fluorescent rays: 480 nm). In respect of the unit of the activity, that required for increasing the fluorescent intensity by 1.0 within one minute is herein defined to be one unit.
Thus, the purified transglutaminase originating from Crassostrea gigas was obtained.

For data set [6], the system named is methylated casein and monodansylcadaverine. The experiment in a line: Transglutaminase activity of crushed cell supernatant of transformed Escherichia coli (pCGTG4E). The data set is classed as biochemical. The following applies: cultivation temp. 26° C.; control: 1.2 μg protein. From the text: Then the transglutaminase activity of the crude extract was investigated by an activity-detection method which made use of an increase in the intensity of fluorescent light (the fluorescent intensity observed at 480 nm while exciting with the light rays of 350 nm) due to the linkage of monodansylcadaverine to methylated casein as an indication. This activity-detection method is the method disclosed in Nippon Suisan Gakkaishi, 1991, 57, pp. 1203-1210 which is slightly modified. More specifically, 20 μl of each crude extract was added to 2 ml of a solution comprising 50 mM Tris-HCl buffer (pH 8.5), 1 mg/ml methylated casein, 15 μM monodansylcadaverine and 10 mM calcium chloride, followed by stirring and keeping warm at 37° C. for 20 minutes. After the reaction, 100 μl of 500 mM EDTA solution was added to the reaction system and each reaction solution was inspected for the intensity of emitted fluorescent light using a fluorophotometer (Shimadzu RF-1500, available from Shimadzu Corporation).
The colony of the transformant (FERM BP-4962) thus obtained was inoculated on 50 ml of LB culture medium (comprising 10 g/l of trypton, 5 g/l of yeast extract and 10 g/l of NaCl (pH 7.0)) supplemented with 50 mg/l of ampicillin and 10 mM of IPTG contained in a Sakaguchi flask, followed by cultivation at 26° C. for 21 hours and collection of the bacterial cells from the culture medium. […]

Data set [7] has the same test system. Put plainly: Transglutaminase activity of yeast crushed cell extract while changing the NaCl concentration. The following applies: control: 1.2 μg protein. The data set is classed as biochemical. From the text:
The crushed cell extract of the foregoing Saccharomyces cerevisiae INVSC2/pCGTG4S AJ14697 (FERM BP-4964) was inspected for the transglutaminase activity while changing the NaCl concentration in the reaction solution by way of comparison (Table 7).

The test system is the same in data set [8]. Put plainly: Transglutaminase activity of crushed cell extract of transformed Saccharomyces cerevisiae. Conditions: 0.35 ml supernatant, GAL1 induced; control: 1.2 μg protein. Type of data set: biochemical.
Experimental: Then the transglutaminase activity of the crude extract was investigated by an activity-detection method which made use of an increase in the intensity of fluorescent light (the fluorescent intensity observed at 480 nm while exciting with the light rays of 350 nm) due to the linkage of monodansylcadaverine to methylated casein as an indication. […] More specifically, 20 μl of each crude extract was added to 2 ml of a solution comprising 50 mM Tris-HCl buffer (pH 8.5), 1 mg/ml methylated casein, 15 μM monodansylcadaverine and 10 mM calcium chloride, followed by stirring and keeping warm at 37° C. for 20 minutes. After the reaction, 100 μl of 500 mM EDTA solution was added to the reaction system and each reaction solution was inspected for the intensity of emitted fluorescent light using a fluorophotometer (Shimadzu RF-1500, available from Shimadzu Corporation).
The transformant was first inoculated on 50 ml of a glucose synthesis minimum medium (prepared by adding 2% glucose and 50 mg/ml of histidine to the foregoing synthesis minimum medium) contained in a Sakaguchi flask and cultivated at 30° C. for 24 hours by shaking culture to increase the number of the cells. […]

In turn, “TGase originated from Cavia porcellus (available from Takara Co., Ltd.) (from UniProt P08587) (enzyme)” yielded an Increase in Fluorescent Intensity/Cultivation Temp. (increase in fluorescent intensity) with dimethylated casein [1] of 4.3.

With “fusion protein of β-galactosidase and the TGase of Crassostrea gigas expressed by plasmid pCGTG4E (enzyme)”, in the data set with dimethylated casein [1], the Increase in Fluorescent Intensity/Cultivation Temp. (increase in fluorescent intensity) was 12.8.

With “recombinant type transglutaminase of Crassostrea gigas expressed in Saccharomyces cerevisiae INVSC2/pCGTG4S (enzyme)”, the Increase in Fluorescent Intensity (increase in fluorescent intensity) in the data set with dimethylated casein [2] turned out to be 46.6.

In turn, “transglutaminase originating from Crassostrea gigas (purified from natural Crassostrea gigas) (enzyme)” returned a Specific Activity (unit/mg): incorporation of monodansylcadaverine into dimethylated casein, fluorescence with dimethylated casein [3] of 1400 unit/mg.

B1: purified transglutaminase: transglutaminase isolated and purified from Crassostrea gigas (Japanese oyster); Mono-Q active fraction (protein)
chain: AFWGVFYTIYSGIRRIAGQPPEEDTSDKEQKRSRTKKALGSEEEEGRISSLSDEDLRARNKVLEPKDEPSATLNVSSVDCQTKLNRKNHHTNEFEKAGNIYRRGQAFVIRVEFDREVNSDHDVILLQFTYGSRPQESKGTVIRIPLDLKPTTKTSDVTETWFAEVKNIAGKGLECAITSAPDSSIGEYRFYIETNLKDTDAVKRYEENESMIILFNAWAKEDTVYMDKEGERGEYVLNETGRVWTSRTWYGRPWNFGQFDDPVLDVALQLLLEGGLSDVACTSPVSVIRCLSSLCNSCDNNGVLAGRWTKEYPKDCTVPWKWTGSVAIIKEYHTNGNKPVRYGQCWVFSGLLTTMCRCLGIPTRSVTNFDSAHDTDSSMTIDSHWDEDGEPLEDMNDSVWNFHVWNESWFRRLDLPEGYDGWQAHDATPQEASEGIMRCGPAPLTAIKEGHVYLNFDIPFVFGEVNGDRVQWVVKKDGTMEVSQIDHSAVGHYISTKRMGSNDREDVTNLYKYPDGSEQERRVAKFVNRYSTRRKQNIYKLDTTKVLKFTVSPPDNTLIGDDMEIKVAVKNTADGPLKLHLTVSLVNAYYTGVAGSRVKTQTFEETIKAKDEKIVTMPVKGTEYHDGMNPEGRFQLYISGKNIDSGSMESTQISFVLKKPQLVIQVPQTIEAKEETEATIVFKNTTQLVLTQAEIAVEGSGLLAPQTIDISSPIKPGDEVKKTVVLRPRKPYYWGRELIATFTSKQIVDIETSADIKVIRQNKDNDSDSD
For the molecule B1, the “effect of addition of KCl on enzyme activity (in words)” value in [4] is recorded as “improved”. The “maximum activity in the presence of NaCl relative to that in the absence” value in data set [4] is “about 2 times”. In addition, the “Ca2+ concentration at which the activity reached the highest level” value is on record as “about 100 mM” in [4] (in the absence of NaCl) and “about 10 mM” in data set [4] (in the presence of NaCl (0.5M)). Moreover, the “effect of NaCl concentration on enzyme activity (in words)” value in data set [4] is reported as “increased as the NaCl concentration increased”. Moreover, the degree of gelation result is “-” in the data set with casein (NaCl 0 M, CaCl2 0 mM, 1% casein, 4.0 units/mg, 37° C. 90 min); “-” in the data set with casein (NaCl 0 M, CaCl2 10 mM); “-” in the data set on casein (NaCl 0 M, CaCl2 25 mM); “±” in the data set on casein (NaCl 0 M, CaCl2 50 mM); “+” in the data set with casein (NaCl 0 M, CaCl2 100 mM); “+” with casein (NaCl 0 M, CaCl2 200 mM). The degree of gelation result with casein (NaCl 0.1 M, CaCl2 0 mM) is on record as “-”; in the data set with casein (NaCl 0.1 M, CaCl2 10 mM) it was “-”; in the data set with casein (NaCl 0.1 M, CaCl2 25 mM) it was “±”; in the data set with casein (NaCl 0.1 M, CaCl2 50 mM) it was “+”; in the data set on casein (NaCl 0.1 M, CaCl2 100 mM) it was “+”; in the data set on casein (NaCl 0.1 M, CaCl2 200 mM), “±”. For the same molecule, the degree of gelation entry in the data set with casein (NaCl 0.3 M, CaCl2 0 mM) is on record as “-”; in the data set with casein (NaCl 0.3 M, CaCl2 10 mM), “±”; with casein (NaCl 0.3 M, CaCl2 25 mM), “+”; in the data set with casein (NaCl 0.3 M, CaCl2 50 mM) it was “+”; in the data set on casein (NaCl 0.3 M, CaCl2 100 mM), “+”; in the data set with casein (NaCl 0.3 M, CaCl2 200 mM) it was “+”. For the same molecule, the “Ca2+ concentration at which the casein solution underwent gelation” value in the data set on casein (NaCl 0.3M) is on record as “not less than 25 mM”; in the data set on casein (free of NaCl) it was “not less than 100 mM”. Besides, the specific activity in data set [5] (Mono-Q active fraction) stood at 1404 units/mg protein; in data set [5] (purification step, Table 1), 1404 unit/mg. The total activity in data set [5] (Mono-Q active fraction) is listed as 358 units; in data set [5] (purification step, Table 1), 368 unit. The “specific activity relative to that of the crude extract” value in [5] (purified solution vs crude extract) was “about 250 times”.

B2: TGase of Cavia porcellus: TGase originated from Cavia porcellus (available from Takara Co., Ltd.), used as control (protein)
chain: AEDLILERCDLQLEVNGRDHRTADLCRERLVLRRGQPFWLTLHFEGRGYEAGVDTLTFNAVTGPDPSEEAGTMARFSLSSAVEGGTWSASAVDQQDSTVSLLLSTPADAPIGLYRLSLEASTGYQGSSFVLGHFILLYNPRCPADAVYMDSDQERQEYVLTQQGFIYQGSAKFINGIPWNFGQFEDGILDICLMLLDTNPKFLKNAGQDCSRRSRPVYVGRVVSAMVNCNDDQGVLQGRWDNNYSDGVSPMSWIGSVDILRRWKDYGCQRVKYGQCWVFAAVACTVLRCLGIPTRVVTNFNSAHDQNSNLLIEYFRNESGEIEGNKSEMIWNFHCWVESWMTRPDLEPGYEGWQALDPTPQEKSEGTYCCGPVPVRAIKEGHLNVKYDAPFVFAEVNADVVNWIRQKDGSLRKSINHLVVGLKISTKSVGRDEREDITHTYKYPEGSEEEREAFVRANHLNKLATKEEAQEETGVAMRIRVGQNMTMGSDFDIFAYITNGTAESHECQLLLCARIVSYNGVLGPVCSTNDLLNLTLDPFSENSIPLHILYEKYGDYLTESNLIKVRGLLIEPAANSYVLAERDIYLENPEIKIRVLGEPKQNRKLIAEVSLKNPLPVPLLGCIFTVEGAGLTKDQKSVEVPDPVEAGEQAKVRVDLLPTEVGLHKLVVNFECDKLKAVKGYRNVIIGPA
With B2, the “effect of NaCl concentration on enzyme activity (in words)” value in data set [4] was “did not show any increase”. Moreover, the entries for the “Increase in Fluorescent Intensity” value in data set [6], in data set [7] and in [8] were 4.3, 3.5 and 3.4, respectively.
